Experiments:
[1] = target: T1, IL-33 protein without any mutation (WT) (human, UniProt O95760 112-270); assay: ELISA as Example 9; row WT-3, the reference itself
T1 construct: Control of the alanine scan (four runs WT-1 to WT-4); also called WT-1; WT-2
T1 sequence: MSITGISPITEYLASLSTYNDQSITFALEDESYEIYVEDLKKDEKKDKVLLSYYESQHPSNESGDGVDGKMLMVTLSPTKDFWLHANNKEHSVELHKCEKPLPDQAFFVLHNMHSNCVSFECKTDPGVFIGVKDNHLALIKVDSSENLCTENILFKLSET
Method: (§1) SA protein was diluted to 2 μg/mL to coat ELISA plate at 100 μL/well overnight at 4° C. The plate was washed with PBST (PBS containing 0.05% Tween20) for 3 times, and blocked with 2% BSA prepared in PBS at 200 μL/well, at room temperature for 2 h. After the plate was washed twice with PBST, IL-33-his-biotin protein was diluted to 1 μg/mL with 1% BSA prepared in PBST, and was added to ELISA plate at 100 μL/well. The plate was incubated at room temperature for 1 h, and each monoclonal antibody was diluted with 1% BSA prepared in PBST in a 3-fold gradient. The highest concentration of antibody was 10 μg/mL, and the antibody was diluted for 12 gradients. Each diluted monoclonal antibody was added to ELISA wells with 100 μL/well, and the plate was incubated at room temperature for 1 h. Each sample was added to duplicate wells in parallel. The plate was washed with PBST for 3 times, and HRP-anti human IgG Fc secondary antibody prepared with PBST was diluted at an appropriate ratio, and was added to ELISA wells at 100 μL/well. […] Each reaction solution was shaken uniformly and OD450 nm was read on a microplate reader. The data was analyzed and EC₅₀ was calculated.
(§2) Subsequently, according to the experimental method of Example 9, the affinity of the above mutant proteins to 874F7-Hu1 was determined, and IL-33 proteins (WT-1, WT-2, WT-3, and WT-4) without any mutation were set as controls.

Cynomolgus IL-33-his = target: T2, Cynomolgus IL-33-his (cynomolgus, UniProt A0A2K5W3I1 112-269, biotinylated in the ELISA of Example 6); assay: SPR Biacore 8K as Example 14, antibody captured, antigen as analyte
T2 construct: Bought protein; also called cynomolgus IL-33 protein; Cynomolgus monkeys IL-33
T2 sequence: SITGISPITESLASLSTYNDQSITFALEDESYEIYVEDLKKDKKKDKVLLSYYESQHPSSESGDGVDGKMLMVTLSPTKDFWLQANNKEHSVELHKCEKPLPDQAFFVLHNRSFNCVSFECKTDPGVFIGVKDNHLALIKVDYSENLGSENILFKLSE
Method: A chip with covalently coupled Protein A/G (purchased from GE Healthcare, catalog number BR-1005-30) was used to capture each antibody to be tested, and the relevant operating parameters were as follows: The antibody concentration was […], the contact time was 75 s, the flow rate was […], and the regeneration contact time was 30 s. The IL-33-his antigen was diluted with HBS-EP pH7.4 buffer solution (purchased from GE Healthcare, catalog number BR-1006-69). The maximum concentration was 50 nM, and diluted to 0.39 nM by two-fold dilution. Duplicate wells and 0 concentration point well were set, and 6M guanidine hydrochloride solution was used as the regeneration buffer. The sample was injected on Biacore 8K according to the following parameters, the binding time was 180 s, the dissociation time was 900 s, the flow rate was 30 μL/min, and the regeneration contact time was 30 s. After running, Biacore 8K Evaluation Software was used to analyze the data according to the “1:1 binding kinetics model”, and the binding kinetics parameters of each antibody to IL-33 were obtained.
The experimental methods were referred to Example 14, in which the antigens cynomolgus IL-33 protein (purchased from Sino catalog number 90912-CNAE) and mouse IL-33 protein (purchased from R&D, 3626-ML-010/CF) were used, and human IL-33 protein was used as the control. Both 864F3-Hu4 and 874F7-Hu1 cross-react with cynomolgus IL-33 protein, and are consistent with the characteristics of each antibody binding to human IL-33 protein.

[2] = target: T3, IL-33 mutant protein D65A (human, UniProt O95760 112-270); assay: ELISA as Example 9; row D65A against WT-3
T3 construct: Prokaryotic expression
T3 chain: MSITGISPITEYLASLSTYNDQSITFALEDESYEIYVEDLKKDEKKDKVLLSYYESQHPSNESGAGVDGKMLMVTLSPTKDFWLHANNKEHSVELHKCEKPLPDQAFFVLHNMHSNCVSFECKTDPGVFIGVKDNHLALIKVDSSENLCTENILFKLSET
Method: as §1, §2

[3] = target: T4, IL-33 mutant protein V67A (human, UniProt O95760 112-270); assay: ELISA as Example 9; row V67A against WT-3
T4 construct: Prokaryotic expression
T4 chain: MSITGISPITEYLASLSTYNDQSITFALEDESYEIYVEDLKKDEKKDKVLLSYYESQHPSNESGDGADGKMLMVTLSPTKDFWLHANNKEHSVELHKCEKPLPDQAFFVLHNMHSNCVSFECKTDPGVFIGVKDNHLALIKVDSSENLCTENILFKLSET
Method: as §1, §2

[4] = target: T1, IL-33 protein without any mutation (WT); assay: ELISA as Example 9; row WT-1
Method: as §1, §2

[5] = target: T5, IL-33 mutant protein N61A (human, UniProt O95760 112-270); assay: ELISA as Example 9; row N61A against WT-3
T5 chain: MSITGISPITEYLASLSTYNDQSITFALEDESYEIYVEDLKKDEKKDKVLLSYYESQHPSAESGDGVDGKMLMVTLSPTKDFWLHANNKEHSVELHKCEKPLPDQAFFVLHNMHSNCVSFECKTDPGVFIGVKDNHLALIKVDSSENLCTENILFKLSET
Method: as §1, §2

[6] = target: T4, IL-33 mutant protein V67A; assay: ELISA as Example 9; row V67A
Method: as §1, §2

Affinity decline ratio [1]: 1 fold
Kd (Cynomolgus IL-33-his): 1270 pM
koff (Cynomolgus IL-33-his): 0.000349 s⁻¹
kon (Cynomolgus IL-33-his): 273000 M⁻¹ s⁻¹
Affinity decline ratio [2]: 192 fold
Affinity decline ratio [3]: 0.6 fold
EC50 [4]: 230 pM
Affinity decline ratio [5]: 0.8 fold
EC50 [6]: 110 pM
B1: 874F7-Hu1 (antibody, human IgG4 S228P, kappa)
heavy: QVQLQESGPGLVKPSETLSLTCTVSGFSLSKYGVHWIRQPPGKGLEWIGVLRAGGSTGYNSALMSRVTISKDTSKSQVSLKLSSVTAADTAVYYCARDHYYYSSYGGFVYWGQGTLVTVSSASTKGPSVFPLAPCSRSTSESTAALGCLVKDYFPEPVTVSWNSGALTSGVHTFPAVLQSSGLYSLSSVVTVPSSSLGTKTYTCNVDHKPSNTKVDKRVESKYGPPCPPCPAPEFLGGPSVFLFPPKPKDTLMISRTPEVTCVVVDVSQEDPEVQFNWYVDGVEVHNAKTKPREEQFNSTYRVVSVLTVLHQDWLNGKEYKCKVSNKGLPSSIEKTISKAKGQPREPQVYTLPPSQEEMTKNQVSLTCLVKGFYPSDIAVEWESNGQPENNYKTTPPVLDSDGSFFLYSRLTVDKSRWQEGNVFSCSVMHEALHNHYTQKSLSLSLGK
light: DIQMTQSPSSVSASVGDRVTITCLASQTIGAWLAWYQQKPGKSPKLLIYAATRLADGVPSRFSGSGSGTDFTLTISSLQPEDFATYYCQQLDSSPYTFGQGTKVEIKRTVAAPSVFIFPPSDEQLKSGTASVVCLLNNFYPREAKVQWKVDNALQSGNSQESVTEQDSKDSTYSLSSTLTLSKADYEKHKVYACEVTHQGLSSPVTKSFNRGEC
notes: also called 874F7-Hul; humanized antibody 874F7-Hu1

— US20230399394A1 (SUNSHINE GUOJIAN PHARMACEUTICAL SHANGHAI, published 2023)
